Test results from IntAct's records for PubMed 31147388.

B1: Protein tost-1 (Caenorhabditis elegans), Q18490 (parent)
chain: MTTAIQYQVIPLADREHSNKVASILENKYKTATNKRITLNERFGVLEKGYTIQATEPETVKNDSDVFFVVHDRNLNSKKEFVENYLAKNPIVNSPEKVFEEEDKENAPTKKAVLKPSSTDEKKLTSSDIYIQEITRSILQSV
partner: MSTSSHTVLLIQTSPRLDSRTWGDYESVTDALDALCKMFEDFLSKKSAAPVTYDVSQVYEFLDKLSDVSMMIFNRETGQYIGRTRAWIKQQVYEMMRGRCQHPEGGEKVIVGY
B2: Protein pid-1 (Caenorhabditis elegans), Q19541 (parent)
chain: MSAKREFSHITLASTPFKKRIDQNSLKTDSDIEKDTNIAHKCAERFNYNTNLHRKVTLSDRFELAALGYEMKAKPRTIIEKHNDCDEFHFIYRKEKKNDYGTGSPLSAGLSLSNPLPAGRGFLSPAIQNTSNQFTFSGSPRITPQKHTPVSANHKPARSIFDDIPSNIA
partner: B1 partner

Variants of: B1
Conditions: with erh2_caeel erh-2, Q20057
For MTTAIQYQVIPLADREHSNKVASILENKYKTATNKRITLNECFGVLEKGYTIQATEPETVKNDSDVFFVVHDRNLNSKKEFVENYLAKNPIVNSPEKVFEEEDKENAPTKKAVLKPSSTDEKKLTSSDIYIQEITRSILQSV [R42C], the “effect of a mutation on the interaction” value was “disrupting interaction strength”.

Variants of: B2
Conditions: with erh2_caeel erh-2, Q20057
With MSAKREFSHITLASTPFKKRIDQNSLKTDSDIEKDTNIAHKCAERFNYNTNLHRKVTLSDCFELAALGYEMKAKPRTIIEKHNDCDEFHFIYRKEKKNDYGTGSPLSAGLSLSNPLPAGRGFLSPAIQNTSNQFTFSGSPRITPQKHTPVSANHKPARSIFDDIPSNIA [R61C] the “effect of a mutation on the interaction” value was “decreasing interaction strength”.

Variants of: B2
Conditions: with erh2_caeel erh-2, Q20057
Remark: another data set of the same source
In the case of MSAKREFSHITLASTPFKKRIDQNSLKTDSDIEKDTNIAHKCAERFNYNTNLHRKVTLSDCFELAALGYEMKAKPRTIIEKHNDCDEFHFIYRKEKKNDYGTGSPLSAGLSLSNPLPAGRGFLSPAIQNTSNQFTFSGSPRITPQKHTPVSANHKPARSIFDDIPSNIA [R61C], the “effect of a mutation on the interaction” value is reported as “disrupting interaction strength”.
